B1: Calypso^43–404 (wild type), as in the Calypso^43–404–ASX^207–340 complex [Drosophila melanogaster] / itself (parent)
chain: ADGWLELESDPGLFTLLLKDFGCHDVQVEEVYDLQKPIESPYGFIFLFRWIEERRARRKIVETTAEIFVKDEEAISSIFFAQQVVPNSCATHALLSVLLNCNENNLQLGDTLSRLKTHTKGMSPENKGLAIGNTPELACAHNSHAMPQARRRLERTGAGVSSCRFTGEAFHFVSFVPINGQLFELDGLKPYPMNHGGWEDSEDWTDKFRRVMAERLGIATGEQDIRFNLMAVVPDRRIAITHKLKMLRTNQAIVSGTLQKLLKADEQGESGNGDSQRPDTPTTLLEPSAFTARDLQSLLKNLDTEIAINEQHLADENDRRHMFKVDASRRTHNYDKFICTFLSMLAHQGVLGELVSQHLLPS

Variants of: B1
Assay: SEC-MALLS (Calypso–Calypso dimerisation within the Calypso–ASX complex)
Conditions: with itself; 50 μM; 20 mM HEPES pH 7.5 and 100 mM NaCl; read off a plot

Row | screen value | Variant
1 | 77 kDa | chain 1 M246R

Reference: PMC6158172, “A bidentate Polycomb Repressive-Deubiquitinase complex is required for efficient activity on nucleosomes” (Nature Communications, 2018)
